Biological target: MeCP2 (human, UniProt P51608 1-486)
Assay: MST

Sequence of MeCP2 (P51608 whole entry): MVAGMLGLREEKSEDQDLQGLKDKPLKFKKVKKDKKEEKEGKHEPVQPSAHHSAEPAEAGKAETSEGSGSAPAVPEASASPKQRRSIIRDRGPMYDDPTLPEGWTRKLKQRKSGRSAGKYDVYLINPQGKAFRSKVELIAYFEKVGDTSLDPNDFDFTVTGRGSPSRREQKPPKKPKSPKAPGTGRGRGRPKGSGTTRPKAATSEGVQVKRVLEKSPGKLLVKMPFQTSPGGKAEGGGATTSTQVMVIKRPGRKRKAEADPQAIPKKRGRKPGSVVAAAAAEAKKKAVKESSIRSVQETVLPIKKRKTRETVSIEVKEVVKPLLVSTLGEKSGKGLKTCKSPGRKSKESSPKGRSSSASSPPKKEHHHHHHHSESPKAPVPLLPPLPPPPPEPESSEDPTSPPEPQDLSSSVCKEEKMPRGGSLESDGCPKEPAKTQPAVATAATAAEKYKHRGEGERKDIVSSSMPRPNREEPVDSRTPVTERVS

B1: 20 bp mC (dsDNA)
DNA 1: ACTACCATCCGGACCAGAAG
DNA 2: CTTCTGGTCCGGATGGTAGT
modifications: 5mC at position 10 of strand 1 and position 10 of strand 2 (printed as X)
- binding result: binds

Reference: paper PMC8855868
